The target of assay [1] is dengue virus serotype DV-4 (live virus, representative strain not named; E protein) (dengue virus serotype DV-4). The assay is described as follows: cell-based or functional assay.
Assay [2] deals with T1, EDIII-DV1 (E protein domain III of dengue virus serotype DV-1) (dengue virus serotype DV-1, UniProt P17763 573-680).
T1 construct: also called DENV-1; EDIII of DV-1
T1 chain: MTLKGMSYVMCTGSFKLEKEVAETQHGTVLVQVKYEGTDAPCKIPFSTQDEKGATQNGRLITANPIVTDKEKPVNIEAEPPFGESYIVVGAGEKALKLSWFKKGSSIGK

The target of assay [3] is T2, EDIII-DV3 (E protein domain III of dengue virus serotype DV-3) (dengue virus serotype DV-3, UniProt P27915 571-678).
T2 construct: also called DENV-3; EDIII of DV-3

Assay [4] deals with T2, EDIII-DV3 (E protein domain III of …). The source holds these as a separate data set.
Assay [5] concerns the target T3, Philippines/1956 (H87)* (serotype III EDIII) (Dengue virus 3).
T3 construct: isolated EDIII protein

The target in assay [6] is T4, Mexico/1977 (BC287/97)* (serotype IV EDIII) (Dengue virus 4).
T4 construct: isolated EDIII protein; also called EDIII of DENV-4 Mexico/1997 (BC287/97); DENV-4 BC2
The assay is described as follows: Kd table, method not stated; Ag DENV-4 BC2.

For assay [7], the target named is T5, New Guinea/1944 (NGC)* (serotype II EDIII) (Dengue virus 2).
T5 construct: isolated EDIII protein; also called EDIII of DENV-2 NGC
The assay is described as follows: Kd table, method not stated; Ag DENV-2 NGC.

In assay [8] the target is T1, EDIII-DV1 (E protein domain III of …).
Assay [9] has the same target. The assay is described as follows: SPR (FIG. 9), by context.
Assay [10] has as its target T6, EDIII-DV2 (E protein domain III of dengue virus serotype DV-2) (dengue virus serotype DV-2, UniProt P14337 573-677).
T6 construct: also called DENV-2; EDIII of DV-2
The assay is described as follows: competition ELISA. For orientation: In an ELISA, binding on a coated surface is turned into a signal by an enzyme label.

For assay [11], the target named is T1, EDIII-DV1 (E protein domain III of …). The assay is described as follows: competition ELISA.
Assay [12] deals with T2, EDIII-DV3 (E protein domain III of …). The assay is described as follows: competition ELISA.
Assay [13] concerns the target T7, Nicaragua/2010 (serotype III EDIII).
T7 construct: also called ED3-DV3/Nicaragua10; DENV-3 Nic
T7 E protein domain III (EDIII): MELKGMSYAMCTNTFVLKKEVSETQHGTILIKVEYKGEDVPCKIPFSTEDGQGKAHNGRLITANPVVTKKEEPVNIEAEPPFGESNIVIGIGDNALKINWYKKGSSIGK

Assay [14] concerns the target T8, EDIII-DV4 (E protein domain III of dengue virus serotype DV-4) (dengue virus serotype DV-4, UniProt P09866 572-679).
T8 construct: also called DENV-4
Kind of assay: competition ELISA; column 'EDIII-DV4 [1/7]'.

The target of assay [15] is T8, EDIII-DV4 (E protein domain III of …). The assay is described as follows: competition ELISA; column 'EDIII-DV4'.
The target of assay [16] is T9, Singapore/2009 (serotype III EDIII).
T9 construct: also called ED3-DV3/Sing09; DENV-3 Sing
T9 E protein domain III (EDIII): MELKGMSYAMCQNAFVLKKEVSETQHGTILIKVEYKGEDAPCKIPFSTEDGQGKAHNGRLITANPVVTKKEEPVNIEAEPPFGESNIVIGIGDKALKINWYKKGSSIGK

Assay [17] concerns the target T8, EDIII-DV4 (E protein domain III of …).
Assay [18] concerns the target T10, New Caledonia/2009 (serotype IV EDIII).
T10 construct: also called ED3-DV4/NewCal09; DENV-4 NC
T10 E protein domain III (EDIII): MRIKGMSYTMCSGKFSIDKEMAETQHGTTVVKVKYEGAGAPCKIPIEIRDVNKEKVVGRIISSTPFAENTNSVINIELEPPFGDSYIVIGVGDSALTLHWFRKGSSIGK
The assay is described as follows: Kd table, method not stated; Ag DENV-4 NC.

Assay [19] addresses T2, EDIII-DV3 (E protein domain III of …). The source holds these as a separate data set.
For assay [20], the target named is T8, EDIII-DV4 (E protein domain III of …). The source holds these as a separate data set.
Assay [21] has the same target. This is another data set of the same source.
Assay [22] deals with T11, Singapore/2010 (serotype IV EDIII).
T11 construct: also called ED3-DV4/Sing10; DENV-4 Sing
T11 E protein domain III (EDIII): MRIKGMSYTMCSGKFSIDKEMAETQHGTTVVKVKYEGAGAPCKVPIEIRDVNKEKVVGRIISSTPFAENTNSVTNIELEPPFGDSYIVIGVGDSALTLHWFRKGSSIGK
The assay is described as follows: Kd table, method not stated; Ag DENV-4 Sing.

Assay [23] has as its target ED3-DV4/H241/Phil56 (EDIII of DENV-4 strain H241) (dengue virus serotype DENV-4, strain …, UniProt Q58HT7 572-679). Kind of assay: Kd table, method not stated; Ag DENV-4 Phil.
Assay [24] deals with T12, Singapore/2008 (serotype II EDIII).
T12 construct: also called ED3-DV2/Sing08; DENV-2 Sing
Kind of assay: Kd table, method not stated; Ag DENV-2 Sing.

In assay [25] the target is T13, Peru/1995 (serotype II EDIII).
T13 construct: also called ED3-DV2/Peru95; DENV-2 Peru
Kind of assay: Kd table, method not stated; Ag DENV-2 Peru.

The target of assay [26] is T8, EDIII-DV4 (E protein domain III of …). Kind of assay: affinity for EDIII-DV-4, tables of FIG. 5; method not stated.
The target is the same in assay [27]. The source holds these as a separate data set.

Read-outs that look alike come from different tables or passages of the source.

B1: antibody B11 (antibody, V domains shown)
VH: VKLLEQSGAELVKPGASVRLSCTAGFNIKDTYMSWVKQRPEQGLEWIGRIDPENGDTKYDPKFQGKATITADTSSNTAYLHLSSLTSGDTAVYYCSRGWEGFAYWGQGTLVTVSA
VL: ELVMTQTPASLAVSLGQRATISCRASENVDKYGNSFMHWYQQKAGQPPKLLIYRASELQWGIPARFSGSGSRTDFTLTINPVEADDVATYFCQRSNEVPWTFGGGTKLEIK
As for B1, the “IC50, focus reduction neutralization test (FRNT), DV-4” value in [1] was 0.5 to 1.4 µg/mL. Further, the Kd in [2] is under 0.1 nM; in [3], 2.98 nM.

B2: mouse mAb 4E11 (antibody, V domains shown)
VH: VKLLEQSGAELVKPGASVRLSCTASGFNIKDTYMSWVKQRPEQGLEWIGRIDPANGDTKYDPKFQGKATITADTSSNTAYLHLSSLTSGDTAVYYCSRGWEGFAYWGQGTLVTVSA
VL: ELVMTQTPASLAVSLGQRATISCRASENVDRYGNSFMHWYQQKAGQPPKLLIYRASNLESGIPARFSGSGSRTDFTLTINPVEADDVATYFCQRSNEVPWTFGGGTKLEIK
notes: also called antibody 4E11
In the case of B2, the Kd turned out to be 21.8 nM in [4]; 21.8 nM in [5]; 40800 nM in assay [6]; 5.2 nM in [7]; 0.33 nM in assay [8].

B3: antibody C88 (antibody, V domains shown)
VH: QVQLVQSGAEVKKPGASVKVSCKASGFNIKDVYMSWVRQAPEQGLEWMGRIDPENGDTKYDPKLQGRVTMTADTSTNTAYMELRSLRSDDTAVYYCARGWEGFAYWGQGTLVTVSS
VL: DIVMTQSPASLAVSLGERATISCRASENVDKYGNSFMHWYQQKPGQPPKLLIYRASELQWGVPDRFSGSGSGTDFTLTISSLQAEDVAVYYCQRSNEVPWTFGQGTKLEIK
For the molecule B3, in assay [9], the “fold greater affinity than C98” value is about 20 fold. For the same molecule, the Kd was under 0.1 nM in assay [10]; under 0.1 nM in assay [11]; 1.06 nM in [12]; 3.2 nM in [13]; 13 nM in assay [14]; 15.4 nM in assay [15]. Besides, the Kd amounted to 1 nM in [16]; 13 nM in [17]; 11.3 nM in [18]; 0.97 nM in assay [19]; 23.8 nM in assay [20]; 13 nM in assay [21]. For the same molecule, the Kd in [5] was 1.5 nM; in assay [22] it was 15 nM; in assay [6], 10.6 nM; in assay [23], 234 nM; in [7] it was under 0.1 nM; in assay [24] it was under 0.1 nM. In addition, the Kd in assay [25] is 0.38 nM.

B4: antibody D48 (antibody, V domains shown)
VH: VKLLEQSGAEVKKPGASVKVSCKASGFNIKDVYMSWVRQAPEQGLEWMGRIDPENGDTKYDPKLQGRVTMTADTSTNTAYMELRSLRSDDTAVYYCARGWEGFAYWGQGTLVTVSS
VL: DIVMTQSPASLAVSLGERATISCRASENVDKYGNSFMHWYQQKPGQPPKLLIYRASELQWGVPDRFSGSGSGTDFTLTISSLQAEDVAVYYCQRSNEVPWTFGQGTKLEIK
Consider B4, for which the “fold improvement in affinity relative to an antibody with a fully humanized N-terminus” value in assay [26] was about 2 fold. Also, in [21], the affinity, expressed as Kd, was 7.49 nM.

B5: antibody D118 (antibody, V domains shown)
VH: QVQLVQSGAEVKKPGASVKVSCKASGWNIKDVYMSWVRQAPEQGLEWMGRIDPENGDTKYDPKLQGRVTMTADTSTNTAYMELRSLRSDDTAVYYCARGWEGFAYWGQGTLVTVSS
VL: DIVMTQSPASLAVSLGERATISCRASENVDKYGNSFMHWYQQKPGQPPKLLIYRASELQWGVPDRFSGSGSGTDFTLTISSLQAEDVAVYYCQRSNEVPWTFGQGTKLEIK
As for B5, the Kd is under 0.1 nM in assay [11]; 9.07 nM in assay [12]; 12.6 nM in assay [14]; 24.4 nM in [15]; 12.6 nM in [17].

B6: antibody D98 (antibody, V domains shown)
VH: QVQLVQSGAEVKKPGASVKVSCKASAFNIKDVYMSWVRQAPEQGLEWMGRIDPENGDTKYDPKLQGRVTMTADTSTNTAYMELRSLRSDDTAVYYCARGWEGFAYWGQGTLVTVSS
VL: DIVMTQSPASLAVSLGERATISCRASENVDKYGNSFMHWYQQKPGQPPKLLIYRASELQWGVPDRFSGSGSGTDFTLTISSLQAEDVAVYYCQRSNEVPWTFGQGTKLEIK
Molecule B6 showed a Kd in assay [27] of 16.9 nM.

B7: antibody C98 (antibody, V domains shown)
VH: QVQLVQSGAEVKKPGASVKVSCKASGFNIKDVYMSWVRQAPEQGLEWMGRIDPENGDTKYDPKLQGRVTMTADTSTNTAYMELRSLRSDDTAVYYCVRGWEGFAYWGQGTLVTVSS
VL: DIVMTQSPASLAVSLGERATISCRASENVDKYGNSFMHWYQQKPGQPPKLLIYRASELQWGVPDRFSGSGSGTDFTLTISSLQAEDVAVYYCQRSNEVPWTFGQGTKLEIK
As for B7, the Kd in assay [10] is under 0.1 nM; in assay [11] it was under 0.1 nM; in assay [12], 1.29 nM; in assay [19] it was 1.21 nM.

For orientation: Kd means the equilibrium constant for the complex coming apart.
